Experimental data reported in patent publication US9616106 (NEUMEDICINES, dated 2017).

Columns and labels:
Assay in all cases: cell-based or functional assay
[1] = molecular target: murine IL-12 receptor on mouse CD14- PBMC (mouse) (UniProt P97378)
[2] = molecular target: rat IL-12 receptor on rat PBMC (rat)
[3] = molecular target: human IL-12 receptor on human CD14- PBMC (human, UniProt Q99665 24-862)
human IL-12 receptor on human CD14- PBMC, sequence (Q99665 24-862): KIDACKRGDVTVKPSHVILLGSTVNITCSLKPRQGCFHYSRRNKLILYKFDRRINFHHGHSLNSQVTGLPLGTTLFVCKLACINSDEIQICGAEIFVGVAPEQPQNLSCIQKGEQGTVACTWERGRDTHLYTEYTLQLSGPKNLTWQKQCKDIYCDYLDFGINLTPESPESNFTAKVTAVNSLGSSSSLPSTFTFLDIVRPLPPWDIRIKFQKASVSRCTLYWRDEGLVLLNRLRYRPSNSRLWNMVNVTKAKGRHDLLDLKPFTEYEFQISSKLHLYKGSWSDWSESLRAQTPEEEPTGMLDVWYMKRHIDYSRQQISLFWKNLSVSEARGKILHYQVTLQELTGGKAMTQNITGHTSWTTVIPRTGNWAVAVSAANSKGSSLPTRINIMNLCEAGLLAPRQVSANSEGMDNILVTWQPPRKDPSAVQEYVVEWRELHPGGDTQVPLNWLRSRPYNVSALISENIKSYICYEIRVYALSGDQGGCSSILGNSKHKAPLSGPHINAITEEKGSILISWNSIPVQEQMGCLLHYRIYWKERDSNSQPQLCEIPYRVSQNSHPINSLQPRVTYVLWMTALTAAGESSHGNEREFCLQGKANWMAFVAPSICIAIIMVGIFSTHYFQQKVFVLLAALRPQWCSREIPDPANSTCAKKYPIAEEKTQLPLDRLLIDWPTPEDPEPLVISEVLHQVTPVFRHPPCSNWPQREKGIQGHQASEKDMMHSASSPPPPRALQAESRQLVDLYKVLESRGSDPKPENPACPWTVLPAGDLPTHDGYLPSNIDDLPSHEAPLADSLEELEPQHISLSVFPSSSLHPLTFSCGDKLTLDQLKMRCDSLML

murine IL-12 receptor on mouse CD14- PBMC (mouse), sequence (P97378 24-874): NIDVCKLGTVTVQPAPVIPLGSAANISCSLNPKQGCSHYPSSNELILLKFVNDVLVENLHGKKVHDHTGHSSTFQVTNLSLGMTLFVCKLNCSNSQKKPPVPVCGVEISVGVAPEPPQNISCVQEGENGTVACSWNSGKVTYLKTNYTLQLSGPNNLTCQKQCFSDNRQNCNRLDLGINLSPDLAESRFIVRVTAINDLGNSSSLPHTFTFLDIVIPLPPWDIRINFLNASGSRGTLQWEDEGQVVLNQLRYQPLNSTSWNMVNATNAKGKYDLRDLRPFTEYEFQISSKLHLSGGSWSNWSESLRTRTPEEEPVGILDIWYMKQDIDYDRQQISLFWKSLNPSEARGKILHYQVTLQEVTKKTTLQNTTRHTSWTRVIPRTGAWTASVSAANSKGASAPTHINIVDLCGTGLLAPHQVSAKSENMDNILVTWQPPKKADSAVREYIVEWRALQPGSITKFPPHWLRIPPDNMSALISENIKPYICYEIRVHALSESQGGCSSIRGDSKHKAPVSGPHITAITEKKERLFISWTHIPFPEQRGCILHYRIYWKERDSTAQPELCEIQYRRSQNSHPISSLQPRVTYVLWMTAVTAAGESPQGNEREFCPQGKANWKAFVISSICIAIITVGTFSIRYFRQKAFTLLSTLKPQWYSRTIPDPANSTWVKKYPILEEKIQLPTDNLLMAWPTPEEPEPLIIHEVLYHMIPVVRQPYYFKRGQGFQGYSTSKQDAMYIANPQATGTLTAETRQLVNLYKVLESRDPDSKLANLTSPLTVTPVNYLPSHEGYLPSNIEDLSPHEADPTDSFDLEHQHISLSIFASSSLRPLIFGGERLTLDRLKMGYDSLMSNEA

B1: recombinant human IL-12 (ligand)
chain 1: RNLPVATPDPGMFPCLHHSQNLLRAVSNMLQKARQTLEFYPCTSEEIDHEDITKDKTSTVEACLPLELTKNESCLNSRETSFITNGSCLASRKTSFMMALCLSSIYEDLKMYQVEFKTMNAKLLMDPKRQIFLDQNMLAVIDELMQALNFNSETVPQKSSLEEPDFYKTKIKLCILLHAFRIRAVTIDRVMSYLNAS
chain 2: IWELKKDVYVVELDWYPDAPGEMVVLTCDTPEEDGITWTLDQSSEVLGSGKTLTIQVKEFGDAGQYTCHKGGEVLSHSLLLLHKKEDGIWSTDILKDQKEPKNKTFLRCEAKNYSGRFTCWWLTTISTDLTFSVKSSRGSSDPQGVTCGAATLSAERVRGDNKEYEYSVECQEDSACPAAEESLPIEVMVDAVHKLKYENYTSSFFIRDIIKPDPPKNLQLKPLKNSRQVEVSWEYPDTWSTPHSYFSLTFCVQVQGKSKREKKDRVFTDKTSATVICRKNASISVRAQDRYYSSSWSEWASVPCS
modifications: glycosylated (produced in CHO cells)
[1]
  EC50 for stimulating IFN-γ secretion from PBMC (ELISA): > 1 nM
[2]
  EC50 for stimulating IFN-γ secretion from PBMC (ELISA): > 1 nM
[3]
  EC50 for stimulating IFN-γ secretion from CD14- PBMC (ELISA, 16 hours): 0.00251 nM
